# Measured values published in the DeepSol protein solubility set.
# Experiment: soluble on expression in E. coli; label from the status in PepcDB or PDB records
row,Sequence,soluble on expression in E. coli
1,MILHAQAKHGKLGLPWLVFLHGFSGDCHEWQEVGEAFADYSRLYVDLLGHGGSAAISVDGFDDVTDLLRKTLVSYNILDFWLVGYSLGGRVAMMAACQGLAGLCGVIVEGGHPGLQNAEQRAERQRSDRQWAQRFRTEPLTAVFADWYQQPVFASLNDDQRRELVALRSNNNGATLAAMLEATSLAVQPDLRANLSARTFAFYYLCGERDSKFRALAAELAADCHVIPRAGHNAHRENPAGVIASLAQILRF,not soluble
2,MGSDKIHHHHHHMHEAVARMLAKYEPKSVDDSVRALREIIQEVALLGLWRSKFFEHAAFYGGTALRILYGLDRFSENLDFSLLEPSPDFNLARYTASLEEELSAFGFNVRVEMVGKAVESAVQSAFLKANTRNELLVIETGGELAGQVAAGQVLKVKIEVDTDPPTGFTTSTRYLLQPIPFAVRSYSLPDLFAGKMHALLFRRWKNRVKGRDWYDFVWYAANHPQLNLAHLEQRMRQTGHWSGDLPLSAAAFRELLSDSIDRLDVDQARNDVAPFVKDQQALALWSHDFFRDVARRVQTDEG,not soluble
3,MGSDKIHHHHHHMKKALVIGGGFAGCSAAHLLSLQGGWDITVVESGPWLGGGCKTLWYGGHPYTFGPRHFLTQNVPVFDYLNKYCPLRRCNDHVFLTYVEKDAQFYNYPIHIDDVARMPEKDQINKELTEAKQLNGAGAAKDFEEYWLASIGRTLYDKFVNTYSKKMWMLDDNKVMDDFSWSPKGVALKEGPRQAWDTAISAYPIAPNGYDDYFEIATRAEGVKVLWTTIEQYDLPNKTVVIDGEKRTYDAIINTASPDLVMDNAFGELPYIGRDFIKFVLPIAHAFPKDVYFLYYASDEPFTRLVEYKQFTRINYDAESTIIGMEIPSKNGRYYPLPLKTEYERAQKYFDAMGENVFSIGRCGSYQYRVDVDDCIAQAMDSVEKLK,not soluble
4,MVAGLTNGELIAPMTYEETMTSDFFEAWFQKFLLPTLTTPSVIIMDNARFHRMGKLELLCEEFGYKLLPLPPYSPEYNPIEKTWAHIKKHLKKVLPSCNTFYEALLSCSCFNLEHHHHHH,not soluble
5,MSLAPIAQAQHELSISRLIDAPPAKVFRAWTEPQWLMQWWGPHGMTTPECEMQLWAGGLFRTLMRAPDGCEYPNQGVFLEIAAPRRLVFTDAFGPGWVPSDKAFMTAVISFDEEQGKTRYTARAWHWNATDCRAHEEMGFHQGWGESLDRLVEVVTQRMPDLEHHHHHH,soluble
6,MAHHHHHHMFSESDRRVRYTKGIGPQEASKEGGLLGDEGGKTWRMPKDKPQQNPASVDDNRIDDSIARGDGDNARDSGDGPGDNFLFTPTAARVDVHPLVLLSLVDHYARVNTKVTQKRRVAGLLLGRYKRLPDGTQLLDINNSFAVPFDEDPHNSDVWFVDTNYADEMFHMFRRVLPRVQVVGWYSAGPSFSVQPNDMLLHLLVADRFTANPVYCIVNTDPGNKGVPVLAYTTVQGREGVRSLEFRNIPTHLGAEEAEEIGIEHLLRDLTDSTITTLSTQIQERELSLAHLSCVLQSIEDYLQDVAEGLMPISEDVLSVLQELISLQPHIYHLKRSTEMIRHSNDQAIAMFIAAIGRCVGALYDVIANRRRINSEMVEVRARREQALKEKLEHEQHKAKEVVTTEKDENNNAK,not soluble
7,MGSDKIHHHHHHMSVRQPLPERLRPTVLEGFVGQTHLTQRIEALLRANRLPSLLLFGPPGCGKSTLALLLAKARSANVLRLSAPEAGLQHLRKQLHGVDILVLDELHRFSKAQQDFFLPLLESGDITMLATTTENPSFSVTRQLLSRLHVLRLRPLGRAELLELGRRGAVAQEVQIEDDVLDLLASMSHGDARTMLNLLEYVAALPEDKRDIEGVRSAMPEIVSRHDKDGDNHYELASALIKSIRGSDPDAALYYLACLLEGGEDPRFVCRRLILSASEDVGLADPQALPLAVACMQAVEYVGMPEGFIPMAQTTVHLALARKSNSTYAAYINAARELKTQGRKGVPLHLRNPSTRLQKEWGYGKGYRYPHSYPEGWIEQEYLPEGLEDRRFYAPRENGEEPRLSAWWRKLQRQRPPRRGSGE,not soluble
8,MPSGAEFTRDERQLNQHENPNDAMSDDNSHSSDTVNSKKGFFSLLLSQLFHGEPKNRDELLALIRDSGQNDLIDEDTRDMLEGVMDIADQRVRDIMIPRSQMITLKRNQTLDECLDVIIESAHSRFPVISEDKDHIEGILMAKDLLPFMRSDAEAFSMEKVLRPAVVVPESKRVDRMLKEFRSQRYHMAIVIDEFGGVSGLVTIEDILELIVGEIEDEYDEEEDIDFRQLSRHTWTVRALASIEDFNDAFDTHFSDEEVDTIGGLVMQAFGHLPARGESIDIDGYQFKVAMADSRRIIQVHVKLPDDAPQPKLEE,not soluble
9,SNAMKIVIAPDSYKESLSALEVATAIEQGFREIWPDADYLKLPLADGGEGTVEAMVEATAGRIVHVEVTGPLGHRVNAFYGLSGDARSAFIEMAAASGLEQVPPAQRDPLKTTSWGTGELIRHALDAGVEHIIIGIGGSATNDGGAGMVQALGARLRDAQGNDIAQGGIGLETLASIDISGLDKRLSACHIEVACDVTNPLTGKEGASAVFGPQKGATPEMIERLDTALTRYAHLIARDLHVDVLDLAGGGAAGGMGAALYAFCGAQLRRGIEIVTDALHLEACLADADLVITGEGRIDSQTIHGKVPIGVANIAKRYNKPVIGIAGSLTADVSVVHEHGLDAVFSVIYTICTLEDALKNASENVRMTARNVAATLKAGQQLR,soluble
10,MRVIFMRQVTKSKKIKILPYPEWLVKAGMSKGIDHDRQHLGIILAAGEMIKVRQVNAEYKEKLKLYLLNDNKNTQRSISFNTDWIELSVDAISVPFINTPYSDGIIPEIVFEYPDTSKLLPVYEKGEDESIFFESWDKQNAEFGVVESEYVIILIPEVSKDRLKSFSTSGGIDTVLGFYQDIFSFNNSLAGLSFEPQRYSDGNTRNRYFAKADKGGGGAAYYSNNWIASSSGSINTFWLSPNATNWGCLHEIAHGYQGGFIDDKYFSTREVWNNIYAACYQDVMLGAEKFNKGWLYNFGKQKEVEKSILNNINNGKEVNAWGERSKLYFIMLMLEKAGVNCFTHFNQIYRERKNTDQSVGSVLDMLSNSFATVENRVDVTLFLQMVGGHISKNQYQRNLFSHAKAVYPLNQLLQGDELTAVKKTLDLNSELSLVDVDSIEFTDIKSNLTLQFSIDDFAQIYGEELLILNGDNYVYNQSIMDKKQTLYNLPVGAYTLRIPTGRNKKYAPQINYLIVKNEDSQTQVDFVHRIGSPIVSQKISLQGLNDYTFATIFFDQENDTVSVDITKTKPHYHFPGMYARIRIKDKDNNELLNEVITGTNQSLSKNDFPLSSCYVIDIFHKEPGRVKLTPAYKGVIDNKSSYNEFIITPYGLQNIKLNNDPKVFLLENIKSAAEMLRSHPIMWHANFSEAKDNIYLAIDIFPSPQKEGLLEQYADCISSYYEKPNEDLGNAFSFIFKGINDREFLTTKLNLVTKKLEVKIVSGTPHSGFKRTYAVLRYFNADGNELLNLDIIGSKKQAGQEWVFPISGYGGEKLYLQHVEPKNRLVITNIMQGIRLSSRTSIQTYEIESLGLSRCT,not soluble
11,MSLDGVLISSREAIAAAWSRVAGEQGVALGPDCLRDHVHGRPGGYTLDYLFGHLPMERRRILKQRVDALEEGADCPLLPGVAAVIRQLRWLDVPLALVTSSWPARIDHVLRQHDLQAAFRTLVSRDDVVHGKPAPDGYRLAAARLGVAPSRCLVFEDSLSGVQAACAAGATCVAIGEESGLLAAGARWSVRDFRELRIVREDDRLYCQHRHPATTGSERSVGVPEGHHHHHH,not soluble
12,MSLGVEENPKLPKSVQRHLEPDERVLFAIKKKISIEKPKWLLVTDRRIIYLDEKVLGRYDFKAIPYQKLEQVVVKLGIMSSEFIIEGEENITLKLGWMDKEEARKAINAIKDALNAIAVEPVSIDVNKGLTSETWVLKKPREFVTRTMPAYQPAQVREEKEDPLEKLKKLKELYDMGVISQEEYEEKRKKLLEEIEGHHHHHH,soluble
13,MLSKISESLANLSGAERKVAECALAEPKWFVHAAVAEIAERASVSQPTVIRFCRSLGYKGLPEFKLALSASIGHEGMPYVHEELNADDDMASVVEKVLGNAAASLLGERRFLKESELENAIATLMHARRVEFYGVGNSGIVAQDAQHKFFRFGMSTVAYVDTHTQLMAASVLSDQDVLVAISNTGSSIELLDAVSIAKENGASVIALTRNDSPLAQLADCVLSVATQENAELYTPMVSRLLQLAVIDILAIGLALRLGDAASLQLQKSKKSIHNKHIDYDKD,soluble
14,MSITINKLEIENVKRIKAVKIEPSATGLTIIGGNNNQGKTSVLDAIAWALGGNKYKPSQAMREGSQVPPTLKITMSNGLIVERKGKNASLKVIDPNGQKGGQQLLDSFVEELAINLPKFMDSTPKEKADVLLEIIGVGDQLAELELKEKEIYNQRHAIGVIADQKEKFAKEMTYYPDAPKQLVSISELIQQHQAILAKNGENAQKRQNVERIRYDYNQSILEVDRLRKLLADAEAKTNKLSEDLKIANTDAMDLHDESTAEIEANIADIDEVNRKVRANFDKDKAEEDAKQQREQYNILTNDIESIRQQKRDLLINADLPLEGLSVDDGKLLYLGQEWDNMSGSQQLIVATAIVRKLKPDCGFVLIDKLEQMDNITLEQFGKRLEQEGLQAIATRVSIGEECAIIIEDGYSVENKAHNFKTAEGGNFAETVAPTWKGEF,not soluble
15,MDIGINSDPPPRDWQLEKVVELSRAGIRPPTAGNREAIEAATGRPWTEWTTHDGELTGHGYAAVVNKGREEGQHYRQLGLLQAGCPTAESIYVRASPLQRTRATAQALVDGAFPGCGVAIHYANGDADPLFQTDKFAATQTDPARQLAAVKEKAGDLAQRRQALAPTIQLLKQAVCQADKPCPIFDTPWRVEQSKSGKTTISGLSVMANMVETLRLGWSENLPLSQLAWGKIAQASQITALLPLLTENYDLSNDVLYTAQKRGSVLLNAMLDGVKPEASPNVRWLLLVAHDTNIAMVRTLMNFSWQLPGYSRGNIPPGSSLVLERWRDAKSGERYLRVYFQAQGLDDLRRLQTPDAQHPMLRQEWRQPGCRQTDVGTLCPFQAAITALGQRIDRPSAPAVAMVLPKLAAALEHHHHHH,soluble
16,GDTSWIKTGKVAWDWWNDWNLKGVPFKAGINMDTYKYYIDFASRNGLEFIVLDEGWYDPKSGDMLTVIPELDLPELIAYGKSKGVEIVLWTVFNVLDSQLEAACKKYADMGIKGFKVDFLDRDDQTAVEMVYRIAEMTARYKLTLDLHGIYKPTGINRTYPHII,not soluble
17,MSTHFGYKTVEADKKADLVAGVFHSVAAKYDIMNDVMSFGIHRFWKRYTIEVSGARPGMKVLDLAGGTGDLTAKFSHLVGDKGEVVLADINDSMLKVGRTKLRDRGIVSNVSYVQANAEALPFPDNHFDIITIAFGLRNVTDKDAALRSMNRVLKPGGKLLVLEFSKPQHEVMRKVYDLYSFKVLPKMGQLITKDADSYEYLAESIRMHPDQDTLKQMMVDAGFEQVDYTNMTDGIVALHRGYKLEHHHHHH,not soluble
18,MYPSDFASALESLSLKEMRQAIHRLLDIRDENTWMLFGTLPFYACSPDEDDQKLLRRLRAAKNVTVRNDPDGRSRLNVNIFDGNIIVTDFGDTPPLGNIQTDSLPSAYEKWRETKLAKELSCHCPNVRCLGPNVLVKNSYYQDTDFTKRQARS,not soluble
19,MSLVSEAHIYLQKTNAIQQSSADLISILAGSGGNRDLLLLRDHLLSIDMMKLLDKDLHLREHFSDRRRDLLSRLWSKDAPDERFQRYYLSRIEVTYDDYAQVLSITAQAYSPEMARAIAQMMVTEGEKYMNALDHKTAHDQVSYIEQQVSALGVRMVAARKAVLAYQDAHGLVSPGNAVESISAIASRLDAELSDLMTKRAALAGYLTPAAPDIVQLDSQIAAVKSQLQAERQRVAAKRGGGLNAVAEEQGRLEAEAALADDMYKTALVALETARVESTRKIKSVAVLQSANLPVYPLEPRRIYNILEGHHHHHH,not soluble
